Measured values published in patent US20260009052, “CAS12 PROTEINS AND USES THEREOF” (GUANGZHOU REFORGENE MEDICINE CO., LTD., published 2026).
Residue numbers refer to the chain shown, from its start.

Tests used:
C12-279 Q186R (Mut-01) = target: T1, C12-279 Q186R (Mut-01) (synthetic construct, Q186R); assay: cell_activity; PAM TTG; +/-0.32
T1 chain: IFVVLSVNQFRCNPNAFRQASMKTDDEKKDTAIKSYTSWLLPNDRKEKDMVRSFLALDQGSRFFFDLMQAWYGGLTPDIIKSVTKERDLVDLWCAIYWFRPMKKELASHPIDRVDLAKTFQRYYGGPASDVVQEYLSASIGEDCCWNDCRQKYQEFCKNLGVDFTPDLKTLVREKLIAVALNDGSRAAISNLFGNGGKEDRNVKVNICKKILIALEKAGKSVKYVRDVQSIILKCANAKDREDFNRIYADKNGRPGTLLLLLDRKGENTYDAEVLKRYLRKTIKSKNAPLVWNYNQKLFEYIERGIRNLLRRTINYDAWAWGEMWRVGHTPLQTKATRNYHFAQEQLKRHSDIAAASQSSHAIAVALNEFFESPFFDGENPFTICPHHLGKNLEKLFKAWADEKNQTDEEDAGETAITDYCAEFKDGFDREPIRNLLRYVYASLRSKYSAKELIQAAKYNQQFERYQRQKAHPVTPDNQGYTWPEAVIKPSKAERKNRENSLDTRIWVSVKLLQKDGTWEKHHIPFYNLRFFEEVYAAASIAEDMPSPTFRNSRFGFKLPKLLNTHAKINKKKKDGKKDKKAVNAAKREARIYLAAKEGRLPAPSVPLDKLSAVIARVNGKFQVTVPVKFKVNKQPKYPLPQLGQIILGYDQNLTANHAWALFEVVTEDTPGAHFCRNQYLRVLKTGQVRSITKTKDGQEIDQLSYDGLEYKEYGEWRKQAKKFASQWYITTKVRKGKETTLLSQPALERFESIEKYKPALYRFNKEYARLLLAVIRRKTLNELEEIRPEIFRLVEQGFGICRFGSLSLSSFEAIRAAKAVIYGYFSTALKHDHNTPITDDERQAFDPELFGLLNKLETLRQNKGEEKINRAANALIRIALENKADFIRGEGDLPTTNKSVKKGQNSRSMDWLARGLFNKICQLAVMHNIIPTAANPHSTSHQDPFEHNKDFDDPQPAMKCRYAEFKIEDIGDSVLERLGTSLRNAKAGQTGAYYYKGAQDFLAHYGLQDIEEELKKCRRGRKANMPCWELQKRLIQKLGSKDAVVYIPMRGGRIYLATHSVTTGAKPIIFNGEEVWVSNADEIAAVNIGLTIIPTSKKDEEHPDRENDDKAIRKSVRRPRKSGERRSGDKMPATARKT
Procedure: (§1) Transfection: transfection was performed 12-14 h after plating. 1.5 μL PEI (Yeasen Biotechnology, 40815ES03, Polyethylenimine Linear (PEI) MW25000) and 500 ng mutation clone plasmid were added to 100 μL Opti-MEM per well of the 24-well plate, mixed, and added to the NAAN cell line for cell transfection after placing at room temperature for 20 min. After overnight transfection, a fresh culture medium was replaced, and the culture was continued for 72 h, followed by flow cytometry. Editing efficiencies of different mutant clones were characterized by the proportion of GFP-positive cells.
(§2) Editing efficiency of some selected mutants was tested in Reporter3 cell line using the same manner as described for the NAAN reporter system, except that the cell line was changed from NAAN cell line to Reporter3 cell line.

C12-279 G989R = target: T2, C12-279 G989R (synthetic construct, G989R); assay: cell_activity; PAM TTG; +/-0.2
T2 chain: T1 chain with R186Q, G989R
Procedure: as §1, §2

B1: C12-279 Reporter3 sgRNA ; Reporter3 target (ssRNA ; dsDNA)
RNA: GUAAUGCGUCUCCCAUUGACGCCUCACCUCGCGACGCAAUGAUG
DNA 1: CTCACCTCGCGACGCAATGATG
DNA 2: CATCATTGCGTCGCGAGGTGAG
**Q.** How did the binding signal (C12-279 Q186R (Mut-01)) turn out when B1 was run?
**A.** The binding signal was 1.6 fold of C12-279.

**Q.** And the binding signal (C12-279 G989R)?
**A.** The binding signal was 1.27 fold of C12-279.
